Target: Acetylcholine receptor on AchR-overexpressed TE671 cells
Assay: cell-based or functional assay

For Synake (peptide), the IC50 value for AchR (inhibition of AchR action, TE671 cells) was 75 µM.

Source: patent EP3904368A2
